Results as given in the supplement of paper PMC12855868.

B1: library; numbered along this chain (parent)
chain: MAAAGGARLLRAASAVLGGPAGRWLHHAGSRAGSSGLLRNRGPGGSAEASRSLSVSARARSSSEDKITVHFINRDGETLTTKGKVGDSLLDVVVENNLDIDGFGACEGTLACSTCHLIFEDHIYEKLDAITDEENDMLDLAYGLTDRSRLGCQICLTKSMDNMTVRVPETVADARQSIDVGKTS

Variants of: B1
Assay: scaled log2 fold change in cell abundance, elesclomol vs control (0 = silent mean, 1 = nonsense mean) (scaled log2 ratio); higher = higher viability under elesclomol (loss of FDX1 cuproptosis function)
Settings: glucose 10 mM
Method: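 Deep mutational scan of full-length human FDX1: a pooled saturation-mutagenesis ORF library (every residue 2-184 mutated to all 19 amino acids plus stop, and silent codons where available) was expressed by lentivirus in FDX1-knockout ABC1 (14 days) or HEK293T (11 days) cells grown with elesclomol (ES) or DMSO control. Variant abundance came from ORF sequencing. The log2 fold change (ES vs control, mean of duplicates) was centred on the silent-variant mean (0) and scaled to the nonsense-variant mean (1). Higher values mean greater viability under ES, i.e. loss of FDX1 function in cuproptosis.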

[1] = with ABC1 FDX1 KO, elesclomol 5 nM, 14 days
[2] = with HEK293T FDX1 KO, elesclomol 40 nM, 11 days
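Also: variant abundance is its share of total variant reads in each endpoint sample, from next-generation sequencing of the integrated ORF PCR-amplified out of genomic DNA.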

| Variant | scaled log2 fold change [1] | scaled log2 fold change [2] |
| --- | --- | --- |
| MAAAGGARLLRAASAVLGGPAGRWLHHAGSRFGSSGLLRNRGPGGSAEASRSLSVSARARSSSEDKITVHFINRDGETLTTKGKVGDSLLDVVVENNLDIDGFGACEGTLACSTCHLIFEDHIYEKLDAITDEENDMLDLAYGLTDRSRLGCQICLTKSMDNMTVRVPETVADARQSIDVGKTS [A32F] | 0.304 | 0.033 |
| MAAAGGARLLRAASAVLGGPAGRWLHHAGSREGSSGLLRNRGPGGSAEASRSLSVSARARSSSEDKITVHFINRDGETLTTKGKVGDSLLDVVVENNLDIDGFGACEGTLACSTCHLIFEDHIYEKLDAITDEENDMLDLAYGLTDRSRLGCQICLTKSMDNMTVRVPETVADARQSIDVGKTS [A32E] | 0.295 | -0.00588 |
| MAAAGGARLLRAASAVLGGPAGRWLHHAGSRGGSSGLLRNRGPGGSAEASRSLSVSARARSSSEDKITVHFINRDGETLTTKGKVGDSLLDVVVENNLDIDGFGACEGTLACSTCHLIFEDHIYEKLDAITDEENDMLDLAYGLTDRSRLGCQICLTKSMDNMTVRVPETVADARQSIDVGKTS [A32G] | 0.242 | -0.0456 |
| MAAAGGARLLRAASAVLGGPAGRWLHHAGSRDGSSGLLRNRGPGGSAEASRSLSVSARARSSSEDKITVHFINRDGETLTTKGKVGDSLLDVVVENNLDIDGFGACEGTLACSTCHLIFEDHIYEKLDAITDEENDMLDLAYGLTDRSRLGCQICLTKSMDNMTVRVPETVADARQSIDVGKTS [A32D] | 0.119 |  |
| MAAAGGARLLRAASAVLGGPAGRWLHHAGSRCGSSGLLRNRGPGGSAEASRSLSVSARARSSSEDKITVHFINRDGETLTTKGKVGDSLLDVVVENNLDIDGFGACEGTLACSTCHLIFEDHIYEKLDAITDEENDMLDLAYGLTDRSRLGCQICLTKSMDNMTVRVPETVADARQSIDVGKTS [A32C] | -0.309 | -1.08 |
| MAAAGGARLLRAASAVLGGPAGRWLHHAGSTAGSSGLLRNRGPGGSAEASRSLSVSARARSSSEDKITVHFINRDGETLTTKGKVGDSLLDVVVENNLDIDGFGACEGTLACSTCHLIFEDHIYEKLDAITDEENDMLDLAYGLTDRSRLGCQICLTKSMDNMTVRVPETVADARQSIDVGKTS [R31T] | -0.552 | -0.717 |
| MAAAGGARLLRAASAVLGGPAGRWLHHAGSYAGSSGLLRNRGPGGSAEASRSLSVSARARSSSEDKITVHFINRDGETLTTKGKVGDSLLDVVVENNLDIDGFGACEGTLACSTCHLIFEDHIYEKLDAITDEENDMLDLAYGLTDRSRLGCQICLTKSMDNMTVRVPETVADARQSIDVGKTS [R31Y] | 0.463 | -0.658 |
| MAAAGGARLLRAASAVLGGPAGRWLHHAGSVAGSSGLLRNRGPGGSAEASRSLSVSARARSSSEDKITVHFINRDGETLTTKGKVGDSLLDVVVENNLDIDGFGACEGTLACSTCHLIFEDHIYEKLDAITDEENDMLDLAYGLTDRSRLGCQICLTKSMDNMTVRVPETVADARQSIDVGKTS [R31V] | 0.267 |  |
| MAAAGGARLLRAASAVLGGPAGRWLHHAGSWAGSSGLLRNRGPGGSAEASRSLSVSARARSSSEDKITVHFINRDGETLTTKGKVGDSLLDVVVENNLDIDGFGACEGTLACSTCHLIFEDHIYEKLDAITDEENDMLDLAYGLTDRSRLGCQICLTKSMDNMTVRVPETVADARQSIDVGKTS [R31W] | -0.118 | -0.246 |
